Data from patent US20230295310A1 (ABCELLERA BIOLOGICS, published 2023).
Blank lines part the entries; values can stand above or below the binder they belong to.

Tests used:
[1] = target: T1, cynomolgus monkey CD3 expressed on cyno primary T cells (cynomolgus monkey, UniProt Q95LI5 22-198; Q95LI8 22-171; Q95LI7 23-181); experiment: flow cytometry, cyno primary T cells
T1 construct: whole, on cells; CD3 complex on purified cynomolgus monkey CD3 pan T cells; also called cyno CD3
Procedure, shortened: (§1)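 Antibodies at 25 nM in PBS + 2% FBS were incubated with CD3-expressing cells for 30 minutes at 4° C and analysed by flow cytometry. Median fluorescence intensity was normalized to isotype control to give fold over isotype (FOI); FOI ≥10 counted as binding.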

[2] = target: T2, human CD3 expressed on cells (Jurkat cells; human primary T cells) (human, UniProt P07766 23-207; P04234 22-171; P09693 23-182); experiment: flow cytometry, Jurkat cells
T2 construct: whole, on cells
Experimental: (§2) Purified antibodies were confirmed to bind CD3 expressed on cells using the CytoFLEX S or LX flow cytometers (Beckman Coulter). Antibodies were diluted to 25 nM in FACS buffer (PBS+2% FBS) and were incubated with CD3-expressing cells for 30 minutes at 4° C. […] The median fluorescence intensity of the binding signal for each antibody was normalized to the isotype control to obtain a fold over isotype value. An antibody with a fold over isotype (FOI) of ≥10 was considered to be positive for binding.

human CD3 [3] = target: T3, human CD3 (human, UniProt P07766 23-207; P04234 22-171; P09693 23-182); experiment: flow cytometry, human primary T cells, 25 nM antibody
T3 construct: whole, on cells; also called CD3 on Jurkat cells; CD3 on human primary T cells
Experimental: as §2

cynomolgus monkey CD3 = target: T4, cynomolgus monkey CD3 (cynomolgus monkey, UniProt Q95LI5 22-198; Q95LI8 22-171; Q95LI7 23-181); experiment: flow cytometry, cyno primary T cells
T4 construct: whole, on cells; CD3 on purified cynomolgus monkey CD3 pan T cells; also called cyno CD3; CD3 on cyno primary T cells
Procedure, shortened: as §1

human CD3 [4] = target: T3, human CD3; experiment: flow cytometry, Jurkat cells, 25 nM antibody
Experimental: as §2

T3 sequence (P07766 23-207, chain 1 of 3): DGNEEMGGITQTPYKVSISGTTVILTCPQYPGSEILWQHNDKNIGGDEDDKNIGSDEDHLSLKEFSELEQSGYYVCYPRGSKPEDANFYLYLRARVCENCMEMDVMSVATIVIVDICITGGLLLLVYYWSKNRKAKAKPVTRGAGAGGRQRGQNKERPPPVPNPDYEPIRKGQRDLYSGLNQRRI
T3 sequence (P04234 22-171, chain 2 of 3): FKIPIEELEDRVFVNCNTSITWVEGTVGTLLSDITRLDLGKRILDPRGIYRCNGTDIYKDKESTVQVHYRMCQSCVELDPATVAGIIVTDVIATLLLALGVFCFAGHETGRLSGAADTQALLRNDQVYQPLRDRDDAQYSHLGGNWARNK
T3 sequence (P09693 23-182, chain 3 of 3): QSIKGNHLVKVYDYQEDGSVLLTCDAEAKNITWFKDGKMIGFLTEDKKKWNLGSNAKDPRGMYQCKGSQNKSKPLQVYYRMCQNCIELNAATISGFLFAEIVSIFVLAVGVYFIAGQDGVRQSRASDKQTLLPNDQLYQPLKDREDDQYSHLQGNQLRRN
T2 sequence (P07766 23-207, chain 1 of 3): as the sequence (P07766 23-207, chain 1 of 3) above
T2 sequence (P04234 22-171, chain 2 of 3): as the sequence (P04234 22-171, chain 2 of 3) above
T2 sequence (P09693 23-182, chain 3 of 3): as the sequence (P09693 23-182, chain 3 of 3) above
T4 sequence (Q95LI5 22-198, chain 1 of 3): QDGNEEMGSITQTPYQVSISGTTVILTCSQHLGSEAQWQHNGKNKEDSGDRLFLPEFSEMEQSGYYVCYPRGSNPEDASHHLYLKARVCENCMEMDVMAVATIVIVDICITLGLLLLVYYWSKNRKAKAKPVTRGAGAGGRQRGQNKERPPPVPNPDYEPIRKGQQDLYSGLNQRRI
T4 sequence (Q95LI8 22-171, chain 2 of 3): as the sequence (P04234 22-171, chain 2 of 3) above, with I5V, N15K, I20V, S32T, D33N, I34N, T64A, S74N, V83L, H141R counted along it
T4 sequence (Q95LI7 23-181, chain 3 of 3): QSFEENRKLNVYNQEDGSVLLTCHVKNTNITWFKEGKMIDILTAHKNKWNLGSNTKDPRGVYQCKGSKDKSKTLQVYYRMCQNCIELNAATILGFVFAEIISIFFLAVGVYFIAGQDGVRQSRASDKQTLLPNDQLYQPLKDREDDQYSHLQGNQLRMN
T1 sequence (Q95LI5 22-198, chain 1 of 3): as the sequence (Q95LI5 22-198, chain 1 of 3) above
T1 sequence (Q95LI8 22-171, chain 2 of 3): as the sequence (P04234 22-171, chain 2 of 3) above, with I5V, N15K, I20V, S32T, D33N, I34N, T64A, S74N, V83L, H141R counted along it
T1 sequence (Q95LI7 23-181, chain 3 of 3): as the sequence (Q95LI7 23-181, chain 3 of 3) above

B1: mAb 282 (antibody, V domains shown)
VH: QVQLVQSETEVKKPGASVRVSCKASGYTFTGYYVHWVRQAPGQGLEWMGWINPKSGRTSYSQKFQDRVTMTRDTSISTVYMELSRLRSDDTAVYYCARILELIFDYWGQGTLVTVSS
VL: EIVLTQSPDFQSVTPKEKVTITCRASQSIGSSLHWYQQKPDQSPKLLIKYASQSFSGVPSRFSGSGSGTDFTLTINSLEAEDAATYYCHQSSSLPTFGPGTKVDIK
notes: VH/VL only
binding result [1]: no binding (tested: FOI <10 (FOI >=10 = positive); 25 nM)
binding result [2]: no binding (tested: FOI <10 (FOI >=10 = positive); 25 nM)

B2: mAb 281 (antibody, V domains shown)
VH: QVQLVQSGAEVKKPGASVRVSCKASGYTFTGYYMHWVRQAPGQGLEWMGWIYPNSGRTNYAQKFQGRVTMTRDTSISTAYMELTRLISDDTAVYYCARLWDLYFDYWGQGTLVTVSS
VL: DIVMTQSPLSLPVTPGEPASISCRSSQSLLHYNGNNYLDWYLQKPGQSPHLLIYLGSNRASGVPDRFSGSGSGTDFTLKIIRVEAEDVGIYYCMQGLQSPYTFGQGTKLEIK
notes: VH/VL only
binding result [1]: no binding (tested: FOI <10 (FOI >=10 = positive); 25 nM)
binding result [2]: no binding (tested: FOI <10 (FOI >=10 = positive); 25 nM)

B4: mAb 292 (antibody, V domains shown)
VH: EVQLLESGGGLVQPGGSRRLSCAASGFTFSTYAMSWVRQAPGKGLEWVSVINGRGDDTNYADSVKGRFTISRDNSKNILFLQMNSLRAEDTAVYYCAKKYSYYYYYMDVWGKGTTVTVSS
VL: SYELTQPLSVSVALGQTARITCGGNNIGSKDVHWYQQKPGQAPVLVIYRDSNRPSGIPERFSGSNSGNTATLTISRAQAGDEADYYCQVWDSRTAVFGGGTQLTAL
notes: VH and VL only
Human primary T Cell Binding (FOI) (human CD3 [3]): 255 FOI
binding result (cynomolgus monkey CD3): no binding (tested: FOI ≥10 = positive; 25 nM)
Jurkat Cell Binding (FOI) (human CD3 [4]): 227 FOI

B5: mAb 289 (antibody, V domains shown)
VH: EVQLLESGGGLVQPGGSRRLSCAASGFTFSSFAMSWVRQAPGKGLEWVSVISSRGDNTNYADSVKGRFTISRDNSKNTLYLQMNSLRAEDTAVYYCAKKYSYYYYYMDVWGKGTTVTVSS
VL: SYELTQPLSVSVALGQTARITCGGNNIGSKNVHWHQQKPGQAPVLVIYRESNRPSGIPERFSGSNSGNTATLTSSRAQAGDEADYYCQVWDSSTAVFGGGTQLTAL
notes: VH/VL only
binding result [1]: no binding (tested: FOI <10 (FOI >=10 = positive); 25 nM)
binding result [2]: no binding (tested: FOI <10 (FOI >=10 = positive); 25 nM)

B8: mAb 296 (antibody, V domains shown)
VH: EVQLLESGGGLVQPGGSLRLSCAASGFTFSSYAMSWVRQAPGKGLEWVSAISGSGGTTYYTDSVKGRFTISRDNSKNTLYLQMNSLRAEDTAVYYCAKKYSYYYYYMDVWGKGTTVTVSS
VL: SYELTQPLSVSVALGQTARITCGGNNIGSKNVHWYQQKPGQAPVLVIYRDSNRPSGIPERFSGSNSGNTATLTISRAQAGDEADYYCQVWDSSTAVFGGGTQLTAL
notes: VH and VL only
Human primary T Cell Binding (FOI) (human CD3 [3]): 183 FOI
binding result (cynomolgus monkey CD3): no binding (tested: FOI ≥10 = positive; 25 nM)
Jurkat Cell Binding (FOI) (human CD3 [4]): 167 FOI

B12: mAb 297 (antibody, V domains shown)
VH: EVQLLESGGGLVQPGGSLRLSCAASGFTFSSYAMNWVRQAPGKGLEWVSIISGGRRDDITYYAASVKGRFTISRDNSKNTLYLQMNSLRAEDTAVYYCAKMYNYYYYYIDVWGKGTTVTVSS
VL: SYELTQPLSVSVALGQTAKITCGGNNIGSKDVHWYQQKPGQAPVLVIYRDSNRPSGIPERFSGSNSGNTATLTISRAQAGDEADYYCQVWDSNTAVFGGGTQLTAL
notes: VH and VL only
Human primary T Cell Binding (FOI) (human CD3 [3]): 211 FOI
binding result (cynomolgus monkey CD3): no binding (tested: FOI ≥10 = positive; 25 nM)
Jurkat Cell Binding (FOI) (human CD3 [4]): 220 FOI

Second part, led by results:

Human primary T Cell Binding (FOI) (human CD3 [3]): 26.7 FOI
Jurkat Cell Binding (FOI) (human CD3 [4]): 68 FOI
B3: mAb 300 (antibody, V domains shown)
VH: EVQLLESGGGLVQPGGSLRLSCAASGFTFSRYAMSWVRQAPGRGLEWVSTISGSGGRTYYVDSVKGRFTISRDNSKNTLYLQMNSLRAEDTAVYYCAKMFSYYYYYMDVWGKGTTVTVSS
VL: EIVMTQSPATLSLSPGKRATLSCRASQSVSTTYLSWYLQKPGQAPRLLIYGASTRATGIPARFSGSGSGTDFTLTISSLQPEDFAVYYCQQDYNLPPYTFGQGTKLEIK
notes: VH and VL only
binding result (cynomolgus monkey CD3): no binding (tested: FOI ≥10 = positive; 25 nM)

Human primary T Cell Binding (FOI) (human CD3 [3]): 219 FOI
Jurkat Cell Binding (FOI) (human CD3 [4]): 216 FOI
B6: mAb 306 (antibody, V domains shown)
VH: EVQLLESGGGLVQPGGSLRLSCAASGFTFNSYAMSWVRQAPGRGLEWVSAISGRKSTTYYADSVKGRFTISRDNSKNTLYLQMNSLRAEDTAVYYCAKLWNYYYYYMDVWGKGTTVTVSS
VL: SYELTQPLSVSVALGQTARITCGGNNIGSKDVHWYQQKPGQAPVLVIYRDSNRPSGIPERFSGSNSGNTATLTISRAQAGDEADYYCQVWDSSTAVFGGGTQLTAL
notes: VH and VL only
binding result (cynomolgus monkey CD3): no binding (tested: FOI ≥10 = positive; 25 nM)

Human primary T Cell Binding (FOI) (human CD3 [3]): 211 FOI
Jurkat Cell Binding (FOI) (human CD3 [4]): 211 FOI
B7: mAb 318 (antibody, V domains shown)
VH: EGQLLESGGGLVQPGGSLRLSCAASGFTFSRYAMSWIRQAPGKGLEWVSVIDGSGGDKNYADSVKGRFTISRDNSKNSLYLLMNGLRVEDTAIYFCAKKFSYYYYYMDVWGKGTSVTVSS
VL: SYELTQPLSVSVALGQTARITCGGNNIGGKDVHWYQQKPGQAPVLVIYRDSNRPSGIPERFSGSNSGNTATLTISRAQAGDEADYYCQVWDSRTAVFGGGTQLTAL
notes: VH and VL only
binding result (cynomolgus monkey CD3): no binding (tested: FOI ≥10 = positive; 25 nM)

Human primary T Cell Binding (FOI) (human CD3 [3]): 226 FOI
Jurkat Cell Binding (FOI) (human CD3 [4]): 234 FOI
B9: mAb 304 (antibody, V domains shown)
VH: EVQLLESGGGLVQPGGSRRLSCAASGFTFSSYAMSWVRQAPGKGLEWVSVISGRGDNTNYADSVKGRFTISRENSKNILYLQMNSLRAEDTAVYYCAKKYSYYYYYMDVWGKGTTVTVSS
VL: SYELTQPLSVSVALGQTARITCGGNNIGSKDVHWYQQKPGQAPVLVIYRDSNRPSGIPERFSGSNSGNTATLTISRAQAGDEADYYCQVWDSRTAVFGGGTQLTAL
notes: VH and VL only
binding result (cynomolgus monkey CD3): no binding (tested: FOI ≥10 = positive; 25 nM)

Human primary T Cell Binding (FOI) (human CD3 [3]): 283 FOI
Jurkat Cell Binding (FOI) (human CD3 [4]): 253 FOI
B10: mAb 301 (antibody, V domains shown)
VH: EVQLLESGGGLVQPGGSRRLSCAASGFTFSSYAMSWVRQAPGKGLEWVSVISGRGDNTNYADSVKGRFTISRENSKNMLYLQMNSLRAEDTAVYYCAKKYSYYYYYMDVWGKGTTVTVSS
VL: SYELTQPLSVSVALGQTARITCGGNNIGSKDVHWYQQKPGQAPVLVIYRDSNRPSGIPERFSGSNSGNTATLTISRAQAGDEADYYCQVWDSRTAVFGGGTQLTAL
notes: VH and VL only
binding result (cynomolgus monkey CD3): no binding (tested: FOI ≥10 = positive; 25 nM)

Human primary T Cell Binding (FOI) (human CD3 [3]): 256 FOI
Jurkat Cell Binding (FOI) (human CD3 [4]): 247 FOI
B11: mAb 303 (antibody, V domains shown)
VH: EVHLLESGGGLVQPGGSLRLSCAASGFTFSSYAMNWVRQAPGKGLEWISIISGGRRSGITYYAASVKGRFTISRDNSKNTLDLQMNSLRAEDTAVYYCAKMYNYYYYYIDVWGKGTTVTVSS
VL: SYELTQPLSVSVALGQTARITCGGNNIGSKDVHWYQQKPGQAPVLVIYRDSNRPSGIPERFSGSNSGNTATLTISRAQAGDEADYYCQVWDSNTAVFGGGTQLTAL
notes: VH and VL only
binding result (cynomolgus monkey CD3): no binding (tested: FOI ≥10 = positive; 25 nM)

Human primary T Cell Binding (FOI) (human CD3 [3]): 241 FOI
Jurkat Cell Binding (FOI) (human CD3 [4]): 253 FOI
B13: mAb 316 (antibody, V domains shown)
VH: EVQLLESGGGLVQPGGSRRLSCAASGFTFRTYAMSWVRQAPGKGLEWVSVINGRGDDTNYADSVKGRFTISRDNSKNILFLQMNSLRAEDTAVYYCAKKYSYYYYYMDVWGKGTTVTVSS
VL: SYELTQPLSVSVALGQTARITCGGNNIGSKDVHWYQQKPGQAPVLVIYRDSNRPSGIPERFSGSNSGNTATLTISRAQAGDEADYYCQVWDSRTAVFGGGTQLTAL
notes: VH and VL only
binding result (cynomolgus monkey CD3): no binding (tested: FOI ≥10 = positive; 25 nM)
